31 sequences from the supplement of paper PMC9170038 can be followed below.

The series deals with MS2 coat protein. Description: apparent KD of MS2 coat protein; designed switch direction (-1 OFF switch, 1 ON switch): -1; higher = weaker reporter binding. Summed up:
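RNA switches sharing common flanks were transcribed by stalled E. coli RNA polymerase on Illumina chips. A doubling series of SNAP-549-labelled MS2 coat protein, from 0.7 or 1.5 nM to 3 µM, was applied in Tris-HCl pH 7.5 buffer with KCl, MgCl2, BSA, DTT, tRNA and Tween-20. Each step lasted 0.8–1.5 h at the bottom of the series and 10–20 min at the top. Normalised cluster fluorescence was curve-fitted, giving apparent KD as the per-design median over clusters.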

Setting [1] is: Eterna round: R95, input ligand: microRNA oligo, concentration not stated.
[2] abbreviates: input ligand: microRNA oligo, concentration not stated.
[3] abbreviates: Eterna round: R95, input ligand: FMN 200 uM.
[4] abbreviates: Eterna round: R95, input ligand: none.

For “GUCCUGGACUAUCACAAGCACAUGAGGAUCACCCAUGUCAUGGGUAGAUUUAUAAAUAAAGAUACUGCUCGUCUUAU [Cac Sensor turn off var1 sub7] (Eterna round: R97, puzzle: Sensor, turn-off variant 1)”, the “apparent KD of MS2 coat protein” value was determined as 197 nM (input ligand: FMN 200 uM) and 252 nM (input ligand: none).
“GUCGAGUGAGGAUAUGGUGAGUAGUGCCUGAGCGCUGCUCACCAGAAGGCACAUGAGGAUCACCCAUGUAUAGC [JL-ex4-2.05 denovo] (puzzle: Exclusion 4)”: the “apparent KD of MS2 coat protein” value under setting [1] is 15.5 nM.
On the same count and under the same terms, then “GUCGAGUGAGGAUAUGGUGAGUAGUGCCUGAGCGCUGCUCACCAGAAGGCACAUGAGGAUCACCCAUGUAUGAC [Mat - Exclusion 4 - Mod of JL - D12] (puzzle: Exclusion 4)”, with 17.8 nM.
For “GUCGUGCAGCUUUGCUGUACGAGUACAUGAGGAUCACCCAUGUAGGAUAUGGUACGCUUUGCGUGCCAGAAGGACGUGCGUUGG [salish99_ExNG3_r04_004] (Eterna round: R96, puzzle: Exclusion NG 3)”, the “apparent KD of MS2 coat protein” value under setting [2] stood at 38.3 nM.
“GUCGUGCGGCUUUGCUGUACGAGUACAUGAGGAUCACCCAUGUAGGAUAUGGUUCGCUUUGCGUGCCAGAAGGGCGUGCGUUGG [Excl-NG3-LRO12] (Eterna round: R96, puzzle: Exclusion NG 3)”: the “apparent KD of MS2 coat protein” value was determined as 31.3 nM (input ligand: FMN 200 uM), 21.6 nM under setting [2] and 31.1 nM (input ligand: none).
As to “GUCGUGUUAGGAUAUGGCAACUACUAAUAAAUUAGUAGUUGUUAGAAGGAACAUGAGGAUCACCCAUGUAUGAC [-23, -22.5 kcal, A 34%] (Eterna round: R97, puzzle: Exclusion 4)”, the “apparent KD of MS2 coat protein” value is, setting by setting: (input ligand: FMN 200 uM) 122 nM; (input ligand: none) 39.9 nM.
Take “GUGAAACAUGAGGAUCACCCAUGUCAGGAUAUGCGAAUUUCAUCAAAAGAUGAAAUUUGCAGAAGGGACUGUAC [Omei Ex1 A21] (Eterna round: R97, puzzle: Exclusion 1)”: the “apparent KD of MS2 coat protein” value by setting is: (input ligand: FMN 200 uM) 136 nM; (input ligand: none) 70.3 nM.
Turning to “GUGAAACAUGAGGAUCACCCAUGUGAGGAUAUGUUUUAGUACUGGAGACAGUACAUCUAUAGAAGGCACAAUGG [Mat - Mod of JL D75] (puzzle: Exclusion 1)”, under setting [1], the “apparent KD of MS2 coat protein” value turned out to be 54.7 nM.
Regarding “GUGAGCAGACGGAGAUCCAACAUGAGGAUCACCCAUGUCUCACAAGCUUUUUGCUCGUCUUAUCCUCCUCUGUUCAC [Elimod 22 - Jieux - Sensor, turn-off variant 1] (Eterna round: R97, puzzle: Sensor, turn-off variant 1)”, the “apparent KD of MS2 coat protein” value by setting is: (input ligand: FMN 200 uM) 15.8 nM; (input ligand: none) 14.6 nM.
For the sequence “GUGAGGGAGUGAGGAUAUCAGGGAGAUAAGAAAUGAGAAGGUACAUGAGGAUCACCCAUGUAAGAGUAGGGAAGAGAGAAGAGU [Default title] (Eterna round: R96, puzzle: Exclusion NG 1)”, the “apparent KD of MS2 coat protein” value by setting is: (input ligand: FMN 200 uM) 69.3 nM; under setting [2], 31.6 nM; (input ligand: none) 66.7 nM.
For “GUGAUAACCAAGCUAGCCAACAUGAGGAUCACCCAUGUGUUCGAUAUGCAACAGGUAUGAUCUUAAUUUGCUCGAUC [Eternabot (Original) Solution 20] (Eterna round: R97, puzzle: Sensor, turn-off variant 1)”, the “apparent KD of MS2 coat protein” value reads like this: (input ligand: FMN 200 uM) 44.3 nM; (input ligand: none) 48.5 nM.
For “GUGAUCUAUCAUGUAAUGAACAUGAGGAUCACCCAUGUAGGCAAGUUUUUUGCUCGUCACAUAAUAAGAUAGAUCAC [Antenna 19 - Jieux - Sensor, turn-off variant 1] (Eterna round: R97, puzzle: Sensor, turn-off variant 1)”, in that order: 14.3 nM and 13.2 nM.
For “GUGCAACAUGAGGAUCACCCAUGUCAGGAUAUGCGAAUUUCAUCAAAAGAUGAAAUUUGCAGAAGGGACUGUAC [Omei Ex1 A20] (Eterna round: R97, puzzle: Exclusion 1)”, in that order: 40.6 nM and 48.9 nM.
Taken in the same sequence, the figures for “GUGCCGCGAGGAUAUACAGACGGGUCCAGGGCGUGUCUCGGACUUGAGGAUCACCCAAGUAGAAGGCGUCUCAG [salish99_ex2_r4_615] (Eterna round: R97, puzzle: Exclusion 2)” were 77.6 nM and 26.7 nM.
With “GUGCCGCGAGGAUAUACAGACGGGUCCAUUACGUGUCUCGGACUUGAGGAUCACCCAAGUAGAAGGCGUUUCAG [salish99_ex2_r4_624] (Eterna round: R97, puzzle: Exclusion 2)”, the “apparent KD of MS2 coat protein” value (input ligand: FMN 200 uM) was 20.7 nM and the “apparent KD of MS2 coat protein” value (input ligand: none) turned out to be 38.4 nM.
Taken in the same sequence, the figures for “GUGCGUGGCUAGGAUAUUGAGGAAUUUAGUCAGCGAGAAGGAGCCACAUGAGGAUCACCCAUGUGGUGAAGCUC [salish99_ex6_r4_001] (Eterna round: R97, puzzle: Exclusion 6)” were 70.2 nM and 17.9 nM.
Taken in the same sequence, the figures for “GUGGCACAUGAGGAUCACCCAUGUUAGGAUAUGCUCAAAACGCCCUAGGGUAAGCUGUGUAGAAGGAGCAGGAC [Eternabot (L1) Solution 52] (Eterna round: R97, puzzle: Exclusion 1)” were 33.7 nM and 35.6 nM.
As for “GUGGCGGAUGCGAACAUGAGGAUCACCCAUGUACAGUCCCUACAGGAUAUCCGCAGUGCCUAGCAGGAGAAGGGUAGGAGCACA [Eternabot solution 40] (Eterna round: R96, puzzle: Exclusion NG 3)”, the “apparent KD of MS2 coat protein” value by setting is: (input ligand: FMN 200 uM) 16 nM; under setting [2], 10.7 nM; (input ligand: none) 17.9 nM.
For “GUGGGUCCUCACGGUGCUACAUGAGGAUCACCCAUGUGGAUUGAGGAUAUCGUAACCCGACGGGACGAGAAGGCAGUUUACUGU [Ex NG3 #99] (Eterna round: R96, puzzle: Exclusion NG 3)”, in that order: 66.2 nM, 14.8 nM and 27.2 nM.
Taken in the same sequence, the figures for “GUGGGUUACAUGAGGAUCACCCAUGUAUAGUGGGAAGAGAGAUAGGAUAUGAUGUGAGAAUUAUAUUAGAAGGAUCGAGACUAG [AK ExNG3-2.6] (Eterna round: R96, puzzle: Exclusion NG 3)” were 632 nM, 236 nM and 351 nM.
Turning to “GUGGUACAUGAGGAUCACCCAUGUUAGGAUAUCGCGUGAGGUUUUACUUCCGCGCGCGCGAGAAGGGACGUCUU (puzzle: Exclusion 1)”, the “apparent KD of MS2 coat protein” value under setting [1] is 23.3 nM.
Take “GUGGUCCGAGGAUAUAUUAUGUGAUACAUGAGGAUCACCCAUGUUAUAUGAUGGAUGUUAGUAGAAGGCGGACUAC [Mat - Exclusion 5 - JL mod - D82] (puzzle: Exclusion 5)”: the “apparent KD of MS2 coat protein” value is, setting by setting: under setting [3], 95.2 nM; under setting [1], 86.2 nM; under setting [4], 96.4 nM.
In the case of “GUGGUCUAUGUAGGAUAUACGUUUGUGCGAUGCGUAGAAGGACAUGAGGAUCACCCAUGUGUGCGAGGAUCACCCGUGUGUUGU [double] (Eterna round: R96, puzzle: Exclusion NG 1)”, the “apparent KD of MS2 coat protein” value runs as follows: (input ligand: FMN 200 uM) 158 nM; under setting [2], 83.9 nM; (input ligand: none) 100 nM.
As for “GUGGUGGGUUUUUCGAGUAACAUGAGGAUCACCCAUGUAUUAGUUGGAUGUAUCAAGCUUUGUGCUCGACUUAUAUA [JR_SV3TOV1_Sub044] (puzzle: Sensor v3, turn-off variant 1)”, the “apparent KD of MS2 coat protein” value was determined as 659 nM under setting [3], 442 nM under setting [1] and 696 nM under setting [4].
On to “GUGGUUUGUGUAGGAUAUUCGUUUGUGCGGUGCGGAGAAGGACAUGAGGAUCACCCAUGUGUGCGAGGAUCACCCGUGUGUUGU [double 2 (less A)] (Eterna round: R96, puzzle: Exclusion NG 1)”, for which the “apparent KD of MS2 coat protein” value turned out to be 55.6 nM (input ligand: FMN 200 uM), 40.3 nM under setting [2] and 50.5 nM (input ligand: none).
Take “GUGUACAGAGGAUAUACACGAGUAGUUACGAAAGUAACUACACAUGAGGAUCACCCAUGUAGAAGGCUGUACAC [Dot plot directed] (puzzle: Exclusion 2)”: the “apparent KD of MS2 coat protein” value under setting [1] came to 20.4 nM.
The same measure, in the same setting: for “GUGUACUGAGGAUAUGCUGGAAUCUAGCGAAGCUAGGUUCCACAUGAGGAUCACCCAUGUAGAAGGCGGUACAC [Dot plot directed A v6] (puzzle: Exclusion 2)” the value was 29.1 nM; for “GUGUAGAUAGGAUAUGCUUAGAGCUUACGAAAGUAGGCUCUACAUGAGGAUCACCCAUGUAGAAGGGUCUACAC [Dot plot directed A v16] (puzzle: Exclusion 2)”, 24.9 nM.
On the same count and under the same terms, for “GUGUAGAUAGGAUAUGCUUUGAGCCUACGAAAGUACGCUCGACAUGAGGAUCACCCAUGUAGAAGGGUUUACAC [LRO-Excl2-05] (puzzle: Exclusion 2)” the value was 88.7 nM.
Regarding “GUGUAGUCAGGAUAUACAUAGGAAGAGAAGAUAAGAUAAGCACAUGAGGAUCACCCAUGUAGAAGGGACAGUGU [Excluse me!! 2 - Jieux - Exclusion 2] (puzzle: Exclusion 2)”, the “apparent KD of MS2 coat protein” value under setting [3] is 77.6 nM, the “apparent KD of MS2 coat protein” value under setting [1] was found to be 66.1 nM and the “apparent KD of MS2 coat protein” value under setting [4] came out at 61 nM.
Regarding “GUGUUACAUGAGGAUCACCCAUGUGAGGAUAUGAGUCAGUCACGGUGACGUGGCUGACUCAGAAGGCACAAAGG [Mat - Exclusion 1 - JL Mod - D39] (Eterna round: R97, puzzle: Exclusion 1)”, the “apparent KD of MS2 coat protein” value (input ligand: FMN 200 uM) was 291 nM and the “apparent KD of MS2 coat protein” value (input ligand: none) was determined as 93.9 nM.
